From publication PMC9342898
Like-named read-outs stand apart in the source and are kept apart here.

Legend:
F-actin = F-actin (UniProt P68135); assay: pull-down; actin isolation: 5 µM MVI ± 15 µM NDP52 with 5 µM F-actin (20% biotinylated), streptavidin Dynabeads, 150 mM NaCl, 50 mM Tris.HCl pH 7.5, 1 mM MgCl2, 1 mM DTT, RT; SDS–PAGE of pellet and supernatant
MVI_(TAIL(NI)) [1] = assay: FRET or BRET; stopped flow; 1 µM FITC-MVI_TAIL(NI) and 1 µM AF555-MVI_TAIL(NI) pre-mixed, then mixed with an excess of unlabelled NDP52, pseudo-first order; 25°C, 50 mM Tris–HCl pH 7.5, 150 mM NaCl, 1 mM DTT, 3 mM MgCl2
MVI_(TAIL(NI)) [2] = assay: as above; remark: listed apart in the source
MVI_(814–1060) = assay: FRET or BRET; titration of Alexa555-CBD against 1 µM FITC-labelled N-terminal tail fragment, plate reader, 25°C, 50 mM Tris·HCl pH 7.5, 150 mM NaCl, 1 mM DTT; fitted to a quadratic binding equation
[3] = biological target: MVI_(814–1091) (containing the LI); assay: as above
MVI_(TAIL(NI)) [4] = biological target: MVI_(TAIL(NI))
MVI_(TAIL(NI)) [5] = assay: FRET or BRET; stopped flow; 1 µM FITC-MVI_TAIL(NI) mixed with excess AF555-NDP52, pseudo-first order; 25°C, 50 mM Tris–HCl pH 7.5, 150 mM NaCl, 1 mM DTT, 3 mM MgCl2
[6] = biological target: T1, nuclear dot protein 52 (NDP52), Q13137; assay: SEC-MALS; 100 µl of 2 mg/ml protein on Superdex 200 (30 × 1 cm), 150 mM NaCl, 50 mM Tris.HCl pH 7.5, 1 mM DTT, room temperature; conditions: remark: other sources report otherwise
T1 chain: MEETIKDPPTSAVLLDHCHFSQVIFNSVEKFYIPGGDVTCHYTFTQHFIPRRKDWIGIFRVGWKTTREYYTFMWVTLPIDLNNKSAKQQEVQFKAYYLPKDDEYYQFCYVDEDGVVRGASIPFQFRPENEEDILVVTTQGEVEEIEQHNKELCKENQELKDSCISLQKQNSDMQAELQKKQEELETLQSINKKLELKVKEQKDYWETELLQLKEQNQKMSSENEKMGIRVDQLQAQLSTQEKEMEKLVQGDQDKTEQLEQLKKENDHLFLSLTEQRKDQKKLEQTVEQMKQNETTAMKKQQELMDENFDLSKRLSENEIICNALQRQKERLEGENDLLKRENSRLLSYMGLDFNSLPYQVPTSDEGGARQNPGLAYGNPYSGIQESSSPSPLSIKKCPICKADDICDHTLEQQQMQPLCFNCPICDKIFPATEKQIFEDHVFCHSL

Work on Full-length MVI NI (natural protein) yielded a kcat of the steady-state actin-activated ATPase of full-length MVI in the presence of dimeric NDP52 (Full-length MVI NI) of 2.11 s⁻¹, a kcat of the steady-state actin-activated ATPase of full-length MVI in the presence of monomeric tDab2 (Full-length MVI NI) of 2.55 s⁻¹ and a percent of MVI bound to actin (F-actin) of 50%. It also gave a percent of MVI bound to actin (with an excess of NDP52) (F-actin) greater than 80%.

In the case of MVI_(1–1060) (domain or fragment), the kcat of the steady-state actin-activated ATPase of MVI 1-1060 (MVI_(1–1060)) is reported as 2.79 s⁻¹.

Work on MVI_(TAIL(NI)) (domain or fragment) yielded an observed rate constant of the FRET increase (dimerization after adding NDP52) (MVI_(TAIL(NI)) [1]) of 2.45 s⁻¹ and an observed rate constant of the FRET increase (dimerization after adding NDP52) (MVI_(TAIL(NI)) [2]) of 2.2 s⁻¹.

Work on “Myosin VI cargo binding domain (CBD) (domain or fragment)” yielded a Kd (MVI_(814–1060)) of 4.8 µM and a Kd [3] of 5.98 µM.

B1: nuclear dot protein 52 (NDP52) (natural protein)
chain: MEETIKDPPTSAVLLDHCHFSQVIFNSVEKFYIPGGDVTCHYTFTQHFIPRRKDWIGIFRVGWKTTREYYTFMWVTLPIDLNNKSAKQQEVQFKAYYLPKDDEYYQFCYVDEDGVVRGASIPFQFRPENEEDILVVTTQGEVEEIEQHNKELCKENQELKDSCISLQKQNSDMQAELQKKQEELETLQSINKKLELKVKEQKDYWETELLQLKEQNQKMSSENEKMGIRVDQLQAQLSTQEKEMEKLVQGDQDKTEQLEQLKKENDHLFLSLTEQRKDQKKLEQTVEQMKQNETTAMKKQQELMDENFDLSKRLSENEIICNALQRQKERLEGENDLLKRENSRLLSYMGLDFNSLPYQVPTSDEGGARQNPGLAYGNPYSGIQESSSPSPLSIKKCPICKADDICDHTLEQQQMQPLCFNCPICDKIFPATEKQIFEDHVFCHSL
modifications: Alexa Fluor 555 label in the stopped-flow FRET assay (site not stated); unlabelled elsewhere
Molecule B1 has a rate constant of the fluorescence decrease of Cy3B-calmodulin bound to MVI TAIL(NI) on mixing with excess NDP52 (unfolding; independent of NDP52 concentration) (MVI_(TAIL(NI)) [4]) of 1.95 s⁻¹, a Kd (MVI_(TAIL(NI)) [5]) of 1.94 µM and a koff (MVI_(TAIL(NI)) [5]) of 3.2 s⁻¹. For the same molecule, the kon (MVI_(TAIL(NI)) [5]) was 1.65e+06 M⁻¹ s⁻¹ and the rate constant of the second phase (unfolding after binding, independent of NDP52 concentration) (MVI_(TAIL(NI)) [5]) was 2.2 s⁻¹.

B2: nuclear dot protein 52 (NDP52), Q13137 1-446 (natural protein)
chain: MEETIKDPPTSAVLLDHCHFSQVIFNSVEKFYIPGGDVTCHYTFTQHFIPRRKDWIGIFRVGWKTTREYYTFMWVTLPIDLNNKSAKQQEVQFKAYYLPKDDEYYQFCYVDEDGVVRGASIPFQFRPENEEDILVVTTQGEVEEIEQHNKELCKENQELKDSCISLQKQNSDMQAELQKKQEELETLQSINKKLELKVKEQKDYWETELLQLKEQNQKMSSENEKMGIRVDQLQAQLSTQEKEMEKLVQGDQDKTEQLEQLKKENDHLFLSLTEQRKDQKKLEQTVEQMKQNETTAMKKQQELMDENFDLSKRLSENEIICNALQRQKERLEGENDLLKRENSRLLSYMGLDFNSLPYQVPTSDEGGARQNPGLAYGNPYSGIQESSSPSPLSIKKCPICKADDICDHTLEQQQMQPLCFNCPICDKIFPATEKQIFEDHVFCHSL
modifications: here or on the partner: Alexa Fluor 555 label in the stopped-flow FRET assay (site not stated); unlabelled elsewhere; Alexa Fluor 555 label in the stopped-flow FRET assay (site not stated); unlabelled elsewhere
For B2, the stoichiometry N [6] was 2.
